Data: patent US20250255972A1, “METHOD OF TREATING UVEITIS WITH MULTIVALENT PROTEIN-HYALURONIC ACID POLYMER CONJUGATE” (Valitor, Inc., priority 2022, published 2025)
“Also recorded” adds a separate entry of the source. Blank lines part the entries; values can stand above or below the molecule they belong to.

Tests used:
[1] = tested on: experimental autoimmune uveoretinitis (EAU) in rats; assay: Second rat EAU model, clinical score by slit lamp, Example 9; type: in vivo, Male Lewis rats; conditions: FIG. 7A, ITV, triamcinolone (40 μg) or conjugate #10 (19 μg), one day after ITV treatment, vs vehicle
Procedure: (§1) The efficacy of conjugate #10 was validated to provide a treatment effect that can sufficiently reduce the symptoms of uveitis. Male Lewis rats were divided into 4 groups (n=12 for EAU induced groups and n=8 for uninduced control) and randomized by weight. The groups received either conjugate #10 at 19 μg, triamcinolone (40 μg), or vehicle control. On Day 1, rats in the induced groups were immunized by a subcutaneous injection in each flank with 25 μg of interphotoreceptor retinoid-binding protein (IRBP) peptide R16 in 0.1 mL of complete Freund's adjuvant for 50 μg total. On days 4 and 8, rat eyes were treated bilaterally with a 5 μL intravitreal (ITV) injection of conjugate #10 or vehicle control, or 1 μL ITV injection of triamcinolone based on their assigned treatment. Prior to the start of the study and on days 3, 6, 10, 12 and 14, ocular inflammation was accessed by slit lamp microscopy and assigned a clinical EAU score of 0-4 based on the appearance of inflammation.

[2] = tested on: pro-inflammatory cytokines and inflammatory regulators in rat vitreous; assay: Cytokine analysis of rat vitreous 14 days after uveitis induction (Milliplex bead panel); type: in vivo, Male Lewis rats; conditions: rat eyes 14 days after uveitis induction; ITV triamcinolone 40 μg or conjugate #10 19 μg
Procedure: as §1
On day 14, animals were euthanized and one eye from each animal was dissected into vitreous and aqueous humor to perform for cytokine analysis. After dissection the aqueous humor from each group was pooled and all tissues were flash frozen. A milliplex Rat Cytokine/Chemokine magnetic bead panel (Millipore Cat #RECYMAG65K27PMX) was used to assess the relative cytokine concentrations in the tissues according to the manufacturer's protocol. Briefly, the ocular tissues were thawed on ice and the sample volume was measured. Then, assay buffer was added to the samples to achieve a final volume of 55 μL for duplicate readings and mixed well. Next, 25 μL of samples, standards or controls was added to the assay plate, mixed with 25 μL of beads and incubated at room temperature for 2 hours. The wells were washed on a magnetic plate washer and incubated with 25 μL of detection antibodies for one hour and then 25 μL of Streptavadin-Phycoerythrin for 30 minutes. Wells were washed on a magnetic plate washer and 125 μL of Sheath Fluid Plus was added per well and then read on the Luminex. The amount of cytokine recovered from each sample was normalized to the volume of tissue recovered and plotted.

[3] = target: T1, Human TNFα, Avi and His tagged (Acro Biosystems TNA-H82E3) (human, UniProt P01375 77-233); assay: BLI (Gator), Avi-tagged TNFα on streptavidin probes, conjugate as analyte, 1:1 global fit
T1 construct: Bought BLI ligand, loaded on streptavidin probes through the Avi tag; also called BLI ligand
T1 sequence (P01375 77-233 limits assumed): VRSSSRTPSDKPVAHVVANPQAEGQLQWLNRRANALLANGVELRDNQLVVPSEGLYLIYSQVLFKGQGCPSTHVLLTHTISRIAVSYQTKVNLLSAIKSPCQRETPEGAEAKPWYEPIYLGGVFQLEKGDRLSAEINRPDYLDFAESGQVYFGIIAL

[4] = Hydrodynamic radius by dynamic light scattering (DLS); type: physicochemical; conditions: 25° C.
[5] = target: T2, Human TNFα (Homo sapiens, UniProt P01375); assay: Biolayer interferometry (BLI) binding kinetics, Human TNFα ligand; conditions: purified conjugate
T2 construct: Avi; His; purchased Acro Biosystems TNA-H82E3
T2 sequence (P01375 77-233 limits assumed): as above

[6] = tested on: TNFα; assay: Long-term 37° C. stability, change in Kon by BLI; type: physicochemical; conditions: FIG. 4B
Procedure: (§2) We then used the top performers from the thermal stability experiments in a long-term 37° C. stability studies. The MVPs were synthesized under sterile conditions and diluted to around 0.4 mg/mL in a sterile filtered human vitreous mimetic buffer (see Table 10) or remained in formulation buffer. The samples were either filtered using sterile 0.2 or 5 μm spin filters before use or mixed with 0.010% sodium azide as an anti-microbial agent. Then, several 100-150 μL aliquots of each sample were added to wells of a sterile 96 well plate with one day 0 aliquot reserved at 4° C. The remaining wells were filled with a sterile filtered human vitreous buffer+0.01% sodium azide to minimize evaporation. The plate was incubated in a standard tissue culture incubator at 37° C. with 5% CO2. At discrete timepoints, one aliquot from each sample was removed from the plate under sterile conditions and analyzed. […] Then, the protein concentration was measured to adjust for any differences in volume that may have occurred. […] To monitor changes in radius over time, the samples were spun for 5 minutes at 5000 g to remove any large aggregates or dust particles and the Rh was measured using DLS methods described above except that the instrument is at 37° C. and without any sample dilution.

[7] = Long-term 37° C. stability in vitreous mimetic buffer, radius by DLS; type: physicochemical; conditions: FIG. 4C; after 35 days at 37° C. in vitreous mimetic buffer
Procedure: as §2

[8] = tested on: experimental autoimmune uveoretinitis (EAU) in rats; assay: Rat experimental autoimmune uveoretinitis (EAU) model, Example 8; type: in vivo, Male Lewis rats; conditions: vs vehicle
Procedure: The efficacy of mu_anti-TNFα_aH_CYS MVPs were validated to provide a treatment effect that can sufficiently reduce the symptoms of uveitis. A rat model of experimental autoimmune uveoretinitis (EAU) was used as a model of chronic posterior uveitis in humans. This model was induced by systemic immunization with the uveitogenic interphotoreceptor retinoid-binding protein (IRBP), and symptoms of uveitis appeared after 9-11 days. Rats were treated intravitreally with 12.5 μg of mu_anti-TNFα_aH_CYS MVP (Conjugate #7). As a positive control, dexamethasone was used.
Male Lewis rats were divided into 4 groups (n=8) and randomized by weight. […] On Day 1, rats were immunized by a subcutaneous injection at the base of the tail and in each thigh with 30 μg of bovine IRBP peptide R16 in 0.2 mL of Freund's adjuvant. On days 8 and 10, rat eyes were treated bilaterally with a 5 μL ITV injection of either dose of their assigned treatment. Prior to the start of the study and on days 7, 9, 11, 14, we assessed ocular inflammation by slit lamp microscopy and assigned a clinical EAU score of 0-4 based on the appearance of inflammation. On day 14, animals were euthanized, one eye from each animal was processed for histopathology, and assigned a score of 0-4 based on the appearance of inflammation and cell infiltration. EAU and histopathology were scored based on published standardized scoring systems.

Molecule: C[C@]12C=CC(=O)C=C1CC[C@H]1[C@@H]3C[C@@H](O)[C@](O)(C(=O)CO)[C@@]3(C)C[C@H](O)[C@@]12F [Triamcinolone, triamcinolone, reference compound]
- Average inflammation score (clinical EAU score, 0=none to 4=severe) [1]: decreased inflammation compared to the vehicle control
- IFNγ concentration in the vitreous ± SD [2]: 2.540 ± 1.804 ng/mL
- IL-1α concentration in the vitreous ± SD [2]: 1.321 ± 0.844 ng/mL
- IL-1β concentration in the vitreous ± SD [2]: 0.721 ± 0.445 ng/mL
- IL-6 concentration in the vitreous ± SD [2]: 19.936 ± 17.156 ng/mL
- MCP-1 concentration in the vitreous ± SD [2]: 2.705 ± 2.640 ng/mL
- TNFα concentration in the vitreous ± SD [2]: 0.046 ± 0.051 ng/mL

B1: (SEQ ID NO:149)+HyA conjugate #12, valency 99 (other)
VHH: QVQLVESGGGLVQPGGSLRLSCAASGGTFSSIIMAWFRQAPGKEREFVGAVSWSGGTTVYADSVKGRFTISRDNSKNTVYLQMNSLRPEDTAVYYCAARPYQKYNWASASYNVWGQGTLVTVSSAEAAAKEAAAKEAAAKAGC
modifications: C-terminal cysteine thiol of the aH peptide linker joined through the MP2H organic linker to hyaluronic acid
- Kd [3]: ≤ 1 pM

B2: Conjugate #13: (SEQ ID NO:150, Hu aTNFα 5MUT aH_CYS)+hyaluronic acid conjugate, MP2H linker, valency 102 (conjugate)
VHH: QVQLVESGGGLVQPGGSLRLSCAASGGTFSSIIMAWFRQAPGKEREFVAAISWSGGTTVYADSVKGRFTISRDNSKNTVYLQMNSLRPEDTAVYYCAARPYQKYNWASASYNVWGQGTLVTVSSAEAAAKEAAAKEAAAKAGC
modifications: hyaluronic acid conjugate, MP2H linker; Hu_aTNFaMu_5MUT aH_CYS
- Rh (nm, DLS) [4]: 71.64 nm

B5: Conjugate #12: (SEQ ID NO:149, Hu aTNFα 3MUT aH_CYS)+hyaluronic acid conjugate, MP2H linker, valency 99 (conjugate)
VHH: QVQLVESGGGLVQPGGSLRLSCAASGGTFSSIIMAWFRQAPGKEREFVGAVSWSGGTTVYADSVKGRFTISRDNSKNTVYLQMNSLRPEDTAVYYCAARPYQKYNWASASYNVWGQGTLVTVSSAEAAAKEAAAKEAAAKAGC
modifications: hyaluronic acid conjugate, MP2H linker; Hu_aTNFaMu_3MUT aH_CYS
- Rh (nm, DLS) [4]: 70.12 nm

Further lines, with some results ahead:

- Kd [5]: ≤ 0.001 nM
- change in association constant of TNFα binding ([6]; after 35 days at 37° C.): minimal change
B3: Conjugate #6: (SEQ ID NO:104, anti-TNFα 3MUT VHH (mouse)-aH)+HyA (850 kDa) conjugate, MP2H linker, valency 51 (conjugate)
VHH: QVQLQESGGGLVQAGGSLRLSCAASGGTFSSIIMAWFRQAPGKEREFVGAVSWSGGTTVYADSVKGRFTISRDSARKSVYLQMNSLKPEDTAVYYCAARPYQKYNWASASYNVWGQGTQVTVSSAEAAAKEAAAKEAAAKAGC
modifications: hyaluronic acid 850 kDa conjugate via MP2H linker; anti-TNFalpha 3MUT VHH (mouse)- aH
- Rh (nm, DLS) [4]: 76.8 nm
- conjugate size (DLS) as share of the original radius [7]: about 75%

- Kd [5]: ≤ 0.001 nM
B4: Conjugate #7: (SEQ ID NO:104, anti-TNFα 3MUT VHH (mouse)-aH)+HyA (850 kDa) conjugate, MP2H linker, valency 98 (conjugate)
VHH: QVQLQESGGGLVQAGGSLRLSCAASGGTFSSIIMAWFRQAPGKEREFVGAVSWSGGTTVYADSVKGRFTISRDSARKSVYLQMNSLKPEDTAVYYCAARPYQKYNWASASYNVWGQGTQVTVSSAEAAAKEAAAKEAAAKAGC
modifications: hyaluronic acid 850 kDa conjugate via MP2H linker; anti-TNFalpha 3MUT VHH (mouse)- aH
- Rh (nm, DLS) [4]: 76.42 nm
- conjugate size (DLS) as share of the original radius [7]: about 75%
- Average inflammation score (0=none to 4=severe) ([8]; FIG. 6A, rat EAU, ITV, or Conjugate #7 (12.5 μg), n=8, one day after ITV treatment): decreased inflammation compared to the vehicle control
- Average histology inflammation score (0=none to 4=severe) ([8]; FIG. 6B, rats sacrificed 14 days after model induction, p<0.05): less inflamed than vehicle treated eyes

- Kd [5]: ≤ 0.001 nM
B6: Conjugate #10: (SEQ ID NO:104, anti-TNFα 3MUT VHH (mouse)-aH)+HyA (850 kDa) conjugate, MP2H linker, valency 96.5 (conjugate)
VHH: QVQLQESGGGLVQAGGSLRLSCAASGGTFSSIIMAWFRQAPGKEREFVGAVSWSGGTTVYADSVKGRFTISRDSARKSVYLQMNSLKPEDTAVYYCAARPYQKYNWASASYNVWGQGTQVTVSSAEAAAKEAAAKEAAAKAGC
modifications: hyaluronic acid 850 kDa conjugate, MP2H linker; anti-TNFalpha 3MUT VHH (mouse)- aH
- Rh (nm, DLS) [4]: 99.14 nm
- Average inflammation score (clinical EAU score, 0=none to 4=severe) [1]: comparable to triamcinolone; also recorded: decreased inflammation compared to the vehicle control
- IFNγ concentration in the vitreous ± SD [2]: 3.116 ± 1.436 ng/mL
- IL-1α concentration in the vitreous ± SD [2]: 1.511 ± 0.709 ng/mL
- IL-1β concentration in the vitreous ± SD [2]: 0.667 ± 0.271 ng/mL
- IL-6 concentration in the vitreous ± SD [2]: 25.565 ± 15.702 ng/mL
- MCP-1 concentration in the vitreous ± SD [2]: 3.843 ± 2.499 ng/mL
- TNFα concentration in the vitreous ± SD [2]: 0.058 ± 0.038 ng/mL

- Kd [3]: ≤ 1 pM
B7: (SEQ ID NO:150)+HyA conjugate #13, valency 102 (other)
VHH: QVQLVESGGGLVQPGGSLRLSCAASGGTFSSIIMAWFRQAPGKEREFVAAISWSGGTTVYADSVKGRFTISRDNSKNTVYLQMNSLRPEDTAVYYCAARPYQKYNWASASYNVWGQGTLVTVSSAEAAAKEAAAKEAAAKAGC
modifications: C-terminal cysteine thiol of the aH peptide linker joined through the MP2H organic linker to hyaluronic acid
notes: also called Conjugate ID 13

- Kd [5]: ≤ 0.001 nM
- change in association constant of TNFα binding ([6]; after 5 days at 37° C.): dramatically decreased
B8: Conjugate #5: (SEQ ID NO:103, anti-TNFα VHH (mouse)-aH)+HyA (850 kDa) conjugate, MP2H linker, valency 121 (conjugate)
VHH: QVQLQDSGGGLVQAGGSLRLSCAASGGTFSSIIMAWFRQAPGKEREFVGAVSWSGGTTVYADSVLGRFEISRDSARKSVYLQMNSLKFPEDTAVYYCAARPYQKYNWASASYNVWGQGTQVTVSSAEAAAKEAAAKEAAAKAGC
modifications: hyaluronic acid 850 kDa conjugate via MP2H linker; anti-TNFalpha VHH (mouse)- aH
